{"source": "paper PMC4657161", "about": "(The Journal of Cell Biology, 2015)", "binders": {"B1": {"name": "HIS-RhoU (natural protein)", "chain": "not shown"}}, "target": "T1, Rab40A (on the HuProt array) (human, UniProt Q8WXH6 1-277)", "T1 sequence": "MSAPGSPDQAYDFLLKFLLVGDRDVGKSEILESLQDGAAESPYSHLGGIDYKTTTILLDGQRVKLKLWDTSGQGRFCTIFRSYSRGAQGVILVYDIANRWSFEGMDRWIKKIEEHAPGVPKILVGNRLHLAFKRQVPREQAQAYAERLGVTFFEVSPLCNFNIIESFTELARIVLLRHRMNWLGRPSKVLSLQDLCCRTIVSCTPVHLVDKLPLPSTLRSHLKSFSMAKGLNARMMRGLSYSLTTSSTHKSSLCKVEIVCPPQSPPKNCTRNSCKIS", "assay": "peptide or protein array", "data": [{"binder": "B1", "values": [{"measurement": "binding result", "value": "binds"}]}]}
